{"source": "paper doi:10.1101/2020.12.23.423990", "biological_target": "nucleocapsid variant NC-1 (circularly permuted Aquifex aeolicus lumazine synthase with the arginine-rich peptide λN+ appended) (Aquifex aeolicus)", "assay": "cryo-EM structure", "note": "Where “and” joins values, the source holds several entries; their conditions need not be identical. Equal values may be shown once.", "data": [{"substance": "nucleocapsid variant NC-1 (circularly permuted Aquifex aeolicus lumazine synthase with the arginine-rich peptide λN+ appended)", "values": [{"measurement": "stoichiometry N", "result": "180 and 120"}]}]}
